This note sets out measurements from patent US20170320967A1 (published 2017).

The term Kd denotes the equilibrium constant for the complex coming apart.

In this assay the target is T1, recombinant human IL4 (human, UniProt P05112 25-153).
T1 construct: Bought protein; also called human IL4 (Millipore catalog # IL004)
T1 sequence (looked up): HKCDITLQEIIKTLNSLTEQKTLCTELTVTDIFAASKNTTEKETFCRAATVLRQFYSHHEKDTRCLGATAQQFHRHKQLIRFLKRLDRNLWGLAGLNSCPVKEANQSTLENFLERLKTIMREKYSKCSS
Briefly: SPR (Biacore), captured antibody, IL4 as analyte. In general terms: SPR reads the build-up and loss of mass on a sensor chip optically.

B1: Binding Protein 18, (anti-IL4 × anti-IL13) × anti-IL13 (bispecific antibody, human IgG1, kappa, lambda)
heavy 1: not shown
light 1: DIVLTQSPASLAVSLGQRATISCRASESVDSYGQSYMHWYQQKAGQPPKLLIYLASNLESGVPARFSGSGSRTDFTLTIDPVQAEDAATYYCQQNAEDSRTFGGGTKLEIKGQPKAAPSVTLFPPSSEELQANKATLVCLISDFYPGAVTVAWKADSSPVKAGVETTTPSKQSNNKYAASSYLSLTPEQWKSHRSYSCQVTHEGSTVEKTVAPTECS
heavy 2: not shown
light 2: not shown
notes: Bispecific trivalent (CODV-Fab) × Fab-IgG1 Fc; kappa on CODV-LC, lambda on Fab-arm-LC; CODV-HC knob-RF, Fab-arm-HC hole; also called IL13 × (IL4 × IL13)
With B1, the equilibrium dissociation constant (Kd) was determined as 1.02 pM.
